Experimental data: patent US20240360238A1 (MAGENTA THERAPEUTICS, published 2024)

B1: HC-18/LC-18 (Ab18) (antibody, IgG1, V domains shown)
VH: EVQLQQYGAELGKPGTSVRLSCKVSGYNIRNTYIHWVNQRPGEGLEWIGRIDPTNGNTISAEKFKTKATLTADTSSHTAYLQFSQLKSDDTAIYFCALNYEGYADYWGQGVMVTGSS
VL: DIQMTQSPSFLSASVGDRVTINCKASQNINKYLNWYQQKVGEAPKRLIFKTNSLQTGIPSRFSGSGSGTDYTLTISSLQTEDVATYFCFQYNIGYTFGAGTKVELK
notes: From rat immunization/hybridoma; purified IgG in BLI; also called 018
B2: HC-20/LC-20 (Ab20) (antibody, IgG1, V domains shown)
VH: EVQLQQYGAELGKPGTSVRLSCKLSGYKIRNTYIHWVNQRPGKGLEWIGRIDPANGNTIYAEKFKSKVTLTADTSSNTAYMQLSQLKSDDTALYFCAMNYEGYEDYWGQGVMVTVSS
VL: DIQMTQSPSFLSASVGDSVTINCKASQNINKYLNWYQQKLGEAPKRLIHKTDSLQTGIPSRFSGSGSGTDYTLTISSLQPEDVATYFCFQYKSGFMFGAGTKLELK
notes: From rat immunization/hybridoma; purified IgG in BLI; also called 020
B3: HC-28/LC-28 (Ab28) (antibody, IgG1, V domains shown)
VH: EVQLQQYGAELGKPGTSVRLSCKVSGYKIRNTYIHWVNQRPGKGLEWIGRIDPANGNTIYAEKFKSKVTLTADTSSNTAYMQLSQLKSDDTALYFCAMNYEGYEDYWGQGVMVTVSS
VL: DIQMTQSPSFLSASVGDSVTINCKASQNINKYLNWYQQKLGEAPKRLIHKTNSLQPGFPSRFSGSGSGTDYTLTISSLQPEDVAAYFCFQYNSGFTFGAGTKLELK
notes: From rat immunization/hybridoma; purified IgG in BLI; also called 028
B4: HC-23/LC-23 (Ab23) (antibody, IgG1, V domains shown)
VH: EVQLQQYGAELGKPGTSVRLSCKVSGYNIRNTYIHWVHQRPGEGLEWIGRIDPTNGNTISAEKFKSKATLTADTSSNTAYMQFSQLKSDDTAIYFCAMNYEGYADYWGQGVMVTVSS
VL: DIQMTQSPSFLSASVGDRLTINCKASQNINKYLNWYQQKLGEAPKRLIFKTNSLQTGIPSRFSGSGSGTDYTLTISSLQPEDVATYFCFQYNIGFTFGAGTKLELK
notes: From rat immunization/hybridoma; purified IgG in BLI; also called 023
B5: HC-19/LC-19 (Ab19) (antibody, IgG1, V domains shown)
VH: EVQLQESGPGLVKPSQSLSLTCSVTGYSISSNYRWNWIRKFPGNKVEWMGYINSAGSTNYNPSLKSRISMTRDTSKNQFFLQVNSVTTEDTATYYCARSLRGYITDYSGFFDYWGQGVMVTVSS
VL: DIRMTQSPASLSASLGETVNIECLASEDIFSDLAWYQQKPGKSPQLLIYNANSLQNGVPSRFSGSGSGTRYSLKINSLQSEDVATYFCQQYKNYPLTFGSGTKLEIK
notes: From rat immunization/hybridoma; purified IgG in BLI; also called 019
B6: HC-11/LC-11 (Ab11) (antibody, IgG1, V domains shown)
VH: QVQLVQSGAAVKKPGESLKISCKGSGYRFTTYWIGWVRQMPGKGLEWMGIIYPGDSDTRYSPSFQGQVTISAGKSISTAYLQWSSLKASDTAMYYCARHGRGYNGYEGAFDIWGQGTMVTVSS
VL: AIQLTQSPSSLSASVGDRVTITCRASQSIGDYLTWYQQKPGKAPKVLIYGASSLQSGVPPRFSGSGSGTDFTLTVSSLQPEDFATYYCQQLNSYPLTFGGGTKLEIK
notes: Purified IgG; also called 011
B7: HC-17/LC-17 (Ab17) (antibody, IgG1, V domains shown)
VH: QIQLVQSGPELRKPGESVKISCKASGYTFTDYAMYWVKQAPGKGLKWMGWINTYTGKPTYADDFKGRFVFSLEASANTANLQISNLKNEDTATYFCARARGLVDDYVMDAWGQGTSVTVSS
VL: SYELIQPPSASVTLGNTVSLTCVGDELSKRYAQWYQQKPDKTIVSVIYKDSERPSGISDRFSGSSSGTTATLTIHGTLAEDEADYYCLSTYSDDNLPVFGGGTKLTVL
notes: From rat immunization/hybridoma; purified IgG in BLI; also called 017

What was measured:
[1] = target: T1, purified rhesus CD117 ectodomain (rhesus, UniProt F6V858 26-524); test: BLI, purified IgG on sensor, soluble rhesus ectodomain; apparent monovalent
T1 construct: extracellular domain; also called rhesus antigen

[2] = target: T2, purified human CD117 ectodomain (R&D Systems #332-SR) (human, UniProt P10721 26-524); test: BLI, purified IgG on sensor, soluble ectodomain; apparent monovalent
T2 construct: extracellular domain; Bought protein; also called c-kit; purified recombinant human CD117 ectodomain
T2 sequence (P10721 26-524): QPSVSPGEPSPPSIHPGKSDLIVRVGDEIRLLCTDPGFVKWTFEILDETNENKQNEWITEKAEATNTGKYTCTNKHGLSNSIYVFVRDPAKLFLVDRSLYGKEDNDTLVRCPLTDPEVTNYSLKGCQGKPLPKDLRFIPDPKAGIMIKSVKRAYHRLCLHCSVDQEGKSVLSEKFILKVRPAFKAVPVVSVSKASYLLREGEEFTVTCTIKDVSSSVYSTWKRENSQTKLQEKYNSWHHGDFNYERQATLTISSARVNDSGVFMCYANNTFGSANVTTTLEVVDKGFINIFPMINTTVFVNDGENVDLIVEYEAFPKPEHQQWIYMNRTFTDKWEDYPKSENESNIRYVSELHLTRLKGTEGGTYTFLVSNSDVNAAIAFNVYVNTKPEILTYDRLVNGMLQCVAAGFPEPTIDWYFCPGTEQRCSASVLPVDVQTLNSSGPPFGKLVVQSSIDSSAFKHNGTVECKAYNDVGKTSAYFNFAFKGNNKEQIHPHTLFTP

| Binder | Kd [1] | koff [1] | kon [1] | Kd [2] | koff [2] | kon [2] |
| --- | --- | --- | --- | --- | --- | --- |
| B1 | 53.8 nM | 0.0119 s⁻¹ | 221000 M⁻¹ s⁻¹ | 22.2 nM | 0.00491 s⁻¹ | 221000 M⁻¹ s⁻¹ |
| B2 | 1.39 nM | 0.000585 s⁻¹ | 421000 M⁻¹ s⁻¹ | 0.254 nM | 0.000202 s⁻¹ | 794000 M⁻¹ s⁻¹ |
| B3 | 3.6 nM | 0.00187 s⁻¹ | 521000 M⁻¹ s⁻¹ | 0.403 nM | 0.000368 s⁻¹ | 914000 M⁻¹ s⁻¹ |
| B4 | 7.62 nM | 0.00214 s⁻¹ | 280000 M⁻¹ s⁻¹ | 1.49 nM | 0.000713 s⁻¹ | 478000 M⁻¹ s⁻¹ |
| B5 | 2.34 nM | 0.000415 s⁻¹ | 177000 M⁻¹ s⁻¹ | 2.35 nM | 0.000481 s⁻¹ | 205000 M⁻¹ s⁻¹ |
| B6 | – | – | – | 1.41 nM | 0.000474 s⁻¹ | 336000 M⁻¹ s⁻¹ |
| B7 | 0.562 nM | 0.000173 s⁻¹ | 307000 M⁻¹ s⁻¹ | 0.672 nM | 0.000306 s⁻¹ | 456000 M⁻¹ s⁻¹ |
